Assay results from the DeepSol protein solubility set.

experiment: soluble on expression in E. coli; label from the status in PepcDB or PDB records

Sequence | soluble on expression in E. coli
MSLTAPRTPGTPRTPRTEHLVLPGVLTAAEAAATVRGILAVQREDGAIPWFRGHHLDPWDHVEAAMALDTADEHEAAERAYAWLARHQNQDGSWYAAYADGDFADVTDRGRETNFVAYVAVGVWHHYLATGDDLFLERMWPVVHAAVEFVLRLQQPGGQIGWRRGDDGTDTTDALLTGSSSVHHALRCALAIAEQREEPQPDWELAAGALRHAIRRHPERFLDKGRYSMDWYYPVLGGALTGTEARSRIQESWDRFVVPGLGVRCVVPNPWVTGGESAELALALWAVGESDHALEILQSIQHLRDPDSGLYWTGYVFEDETVWPRELTAWTAGSLLLAVAALGGHEATCQVFAGERLPRGLDPDCCVEGHHHHHH | soluble
MVGYAEPVLIERQSVVAAPAEQVWQRVVTPEGINDELRPWMTMSVPRGAKGMTVDTVPIGAPIGRAWLRLFGVLPFDYDRLSIAELEPGRRFREDSTMLSMRQWQHERTVTPEGDTKTIVRDRITFQTRAGLRFAAPLIAAGLRALFGHRHRRLQRHFAQGLEHHHHHH | soluble
MASSSNFMAPPPKMNKTSSMNSLRKTLGLKKPNNGELSMVPSRPIVSPTLSSPLQGSGAAPLEKDYHSLEYRLTHGHWRIFNSKSVFGNKDASVLVFDKKSNVKAPPKLGKSKTYSMFDLIKYETQQLMGLIHPRILHMEHSLEETKDYISFATEQIFGNLENVVTDESLDRLEIKLGVLQIIDGMSYLHNSAKMLHGNLTPDAIYVTATKTWKIGGFSFAVNAKEPNCYPCYPWTKKLPPCLQPDLDFLAPENLAPGQTTVTSAADVFSLGVLICWIYAGGKRLIDAKSNLETYHIVVGQLDAALQCISNELGPNLKDSMAKVLSLDVEVRPTVQLLSLIKHFDDPCLSALRQLDDIAQVFDPSQKSHFLSQTLNVAIPHISESVWFNRVLPRFNEQLLELPEMYYPITKPLFHILEHCESHNIHKMKPWIRKLMEAAPHNKLLRAFILENMSALFRRLSDEFVEDKCLDVIILSLKSEDTSLQSSAVRGLPHVAEYLPVGFITKKLIPAIMGLPPFLHENVPRQLDLLAALAALSDRCDVSSIVHLFGCISLCNSSHPVIVHAKSRIVQRLVMRDPNRLKDSQLLSIHLLNPLVNGLACKDLSTFSCAHFDDVLSSVRILLDVLEQRRYEMEDRQEHKQSNHHLGLNRLGNRRVSMSSTNLPRVMISAARPSFSSDSRKMSFLSADGRLEDRGSRRESRDSRGSLESDMSIRIGNGSDISDDSCFSSHSAKGRRQSWLDGYGHSVSLEQNTNGFLETTSRNLGDRNSMNFKQRNARASERRARTRSPNAELDPQREQPPARPNSFTNLGHNIVLTYRNLLYKDHT | not soluble
MGQLVDGVWHDTWYETKSTGGHFKRSESAFRNWVTPDGAPGLTGKGGFPAQSGRYHLYVSLACPWAHRTLLMRQLKGLEDHIAVSVVHPLMLDHGWTFGTDFEAATGDSLYQHEFLYQLYLHAKPDYSGRVTVPVLWDTEQHTVVSNESADIIRMLNSAFDGVGAIAGDYYPEALRTQIDELNSWIYDKVNNGVYKAGFATTQSAYDESASTVFAALSDLETILAKQRYLTGEQLTEADLRLWTTLIRFDPVYHTHFKCDKYRLSDYPNLFGFLRDIYQMPGIAETVDMAHIRHHYYRSHGLEHHHHHH | not soluble
MSLIRVAIADDHQTLIDGISLRFDGNESIDLVFSANDGKDFLKQLKITPVDLVITDLKMPKMDGVTLAREIKRDFKNVKVIVLSMFDQPDVINKMVDVDVDGYILKTSSLDELVTAIGEVNKGKKYFDKHLHGITSLFDVNSTSSKTSLSNAEKDILNLIAEGKTSQEIANERACAVSTIHTHRRNMAHKLELYGKGELLRYAMDKKYNFEEGHHHHHH | soluble
MTSAAQLTALLHLASPALPVGAFSYSQGLEAAVEARHVHDEASAARWIAEGLAVLAACEAPLWLLQYADWQAGRLDAVAERDGWFLATRETRELRLETAQMGWSLARLIAQMGWGAPAMRDALAARAAITFPTAFAAAAVALGIEARDGLTAYSFAWVENQVAAAVKAIPLGQAAGQRILFGLHAAVGQAAEDAARRAACHPPELSTFSPGLGVLSARHETQYSRLFRSLEHHHHHH | not soluble
MGSDKIHHHHHHMSVGRIGFIGTGSITEAIVTGLATCADVPTEVWLSPRNAQIADRLAQAYPMVQVAGENQEVVDRCDVVCLAVRPQVAESVLQALRFSGRHHVISFIATYGLDKLRTLIAPAKTLVRAAPLPTVAEHLCNTLVFPADDIARSLFTQLGGAIEVGSEEAFDVLFSATATMGSYFALLHNQARWLEQHGSTYSEARDYLASLHFGLASVARKTQTRFDELSKEFTTAGGLNEQVLDALGAHRVFNAFDDAFDQVLHRIGGTVSQRNE | not soluble
MTVIETPVKSVICMTSLQLSNFIKLDALSHVVGITSTRHLFNKEMNERLKQGKTAKIGIEGNFDNEVIMSVNPDVIFISPFKRGGYDAMREVGIPLVPHLGYKEMTPLGQAEWIKFIGLFIGEEETANRKFAAIEKHYNELKERVAHVKKRPVLEHHHHHH | not soluble
MLAYQGTQIKEKRDEDAGFDLCVPYDIMIPVSDTKIIPTDVKIQVPPNSFGWVTGKSSMAKQGLLINGGIIDEGYTGEIQVICTNIGKSNIKLIEGQKFAQLIILQHHSNSRQPWDENKISQRGDKGFGSTGVF | soluble
MPDGWRKMGVLVFYDLPVVSPEQRLAAVRFHKFLLADGFERMHYSIYARYCGSMERAATYERRVEQALPAVGHVNLLKLTDRQMVGMRKWIRGNYRAPENAEFVPPAQYQLFLEHHHHHH | not soluble
VLLHSKEVAYIAGLMAEELGLDAKLARRAGLLHDIGKAISHELGGSHTDIGVELARKYGEPDAVINAIRAHHEEEPVRYPEVALVCAADALSAA | not soluble
MDREHLIKLACARNPDLEMCEQLKARNVRDSNSGKLEMIEPPPLPPSMKAAKRRDIHAAHDENSEQKPVRYRALSAEEVRILQTKCARVGPLVQKHCQPKKTSARNAGRCAAYFRDCAQFIEKGDPLGAIANSFDSGVNINLANVDVKGIPYYPLNEEGAVGVGVGLGIPFGAWGGGASTSVGVRDYFHGDQEVGANWYDGKYGYKNHWNIPLVQSLGVEGGQHNTVSFPLHGKDAGNLKVDNGYGVGGYYQQNDHVGVNYKEGDVRHTFGVSSPFVGAGFQTGQAVAFPGLDVWERALG | not soluble
MTDLEVSVDDLVKLLSPTMSLIVRRKTMEVVTQLGTPLDGSAGKYFQAQDFALGKAICQLCEATSSDRTETLAALTNFTSGSIEAADFVLDKSKCVEIAYTAVVTNALYSSVASRLLVNVSRHFPDRVDHKLKARNANYIGQLLNEIKKSVETGDEDRAKFVGFTVVNLSVLPPIRQNIVQGGENESSPPSTTMKLLPIVCELLTTAETTEIRECAADVLRNLAFDDSLHGSLLDTSDEYLCSILAPLMDVNDNLDEEEIAKLPVRLQYYEKERDSSDIVRQKLIEALFQLCATKHGREVLRAKGVYPAMRELDKGTETAEDKHKKTLLSSQQEHTLHALIGILIRYESEMDVDPELSSIRELGTSEVTEITKTS | not soluble
TPAGSFGLEFSFSYQKFTASFQPNYRRQTYSYSNTYEWHDANNVQNYLQLTYNQKTQLDYIEFPLFIRYDIISGAFKPFVQAGFYYAILNSATKQLNIEGVDHSGGTSRSFTEPVTIIGADDLFINSSIGAALGLGTSYKVGNIRLILDATYRMGLNNISNVQNRYISNSLSGAGDVSDDLKLNNITFSFGCLFPMKFLISPSHKAVD | not soluble
MLHLIVADSELETIPEEMLDDPGVRRFAKKRNKRVDRMILDSNYMHAFIDKYYPGESKRRGRPDIIYILLEMAQESILNRKNLLRTYIHTRNDFVIKISPITRMPKSYNRFIGLFEDLFEKEIITNNGKTLLSLERMKLDELLESLKKDRTILLHPKGEFKKPSEFISTEDIAAIIGGFSEGDFRSDVSNIPEKYSIFRDELTIWSVGLEIVASYERAIGLLLEHHHHHH | not soluble
SLEEYHKWYYGNLVWTKTTYMGINCWKSVSDMWNYQEILSELQPSLVIEFGTRYGGSAVYFANIMRQIGQPFKVLTVDNSHKALDPRARREPDVLFVESSSTDPAIAEQIQRLKNEYPGKIFAILDSDHSMNHVLAEMKLLRPLLSAGDYLVVEDSNINGHPVLPGFGPGPYEAIEAYEDEFPNDYKHDAERENKFGWTSAPNGFLIRN | soluble
